Reference: the supplement of paper PMC7877785
± gives the uncertainty stated by the source.

Test: self-splicing fitness, log relative to wild type (ln ratio); higher = more splicing; Tetrahymena group I intron in knt gene, E. coli kanamycin selection, DiMSum; sequences stand for … in CUCUCU…GGAGGGAAAAGUUAUCAGGCAUGCACCUGGUAGCUAGUCUUUAAACCAAUAGAUUGCAUCGGUUUAAAAGGCAAGACCGUCAAAUUGCGGGAAAGGGGUCAACAGCCGUUCAGUACCAAGUCUCAGGGGAAACUUUGAGAUGGCCUUGCAAAGGGUAUGGUAAUAAGCUGACGGACAUGGUCCUAACCACGCAGCCAAGUCCUAAGUCAACAGAUCUUCUGUUGAUAUGGAUGCAGUUCACAGACUAAAUGUCGGUCGGGGAAGAUGUAUUCUUCUCAUAAGAUAUAGUCGGACCUCUCCUUAAUGGGAGCUAGCGGAUGAAGUGAUGCAACACUGGAGCCGCUGGGAACUAAUUUGUAUGCGAAAGUAUAUUGAUUAGUUUUGGAGUACUCGUGGUCG
Summary of the method: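 The eight P1ex-region nucleotides of an intron in the knt kanamycin-resistance gene on pET-22b(+) were all randomised and the library put into E. coli BL21(DE3). Six replicate transformations were grown overnight at 37°C or 30°C on LB agar with or without 25 μg/mL kanamycin, together with 100 μg/mL carbenicillin, 50 μM IPTG and 0.2% rhamnose. Colonies were pooled and amplicon-sequenced on an Illumina HiSeq 2500. Fitness from DiMSum is the error-weighted combination of wild-type-normalised replicate fold changes, kanamycin over none.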

| Sequence | self-splicing fitness (ln) (30 °C) | self-splicing fitness (ln) (37 °C) |
| --- | --- | --- |
| GCAGAGCAAUAUUACGCCAG | -2.36 ± 0.48 | – |
| GCAGAGCAAUAUUACGCCCA | -1.07 ± 0.28 | -0.895 ± 0.46 |
| GCAGAGCAAUAUUACGCGAA | -4.38 ± 0.24 | -3.44 ± 0.21 |
| GCAGAGCAAUAUUACGCGUA | -2.94 ± 0.33 | -2.22 ± 0.25 |
| GCAGAGCAAUAUUACGCUCA | -1.66 ± 0.15 | -0.832 ± 0.15 |
| GCAGAGCAAUAUUACGCUUC | -3.9 ± 0.27 | -2.22 ± 0.2 |
| GCAGAGCAAUAUUACGGAAU | -3.4 ± 0.36 | -1.51 ± 0.34 |
| GCAGAGCAAUAUUACGGAUG | -2.76 ± 0.18 | -1.82 ± 0.22 |
| GCAGAGCAAUAUUACGGCCG | -3.3 ± 0.24 | -2.02 ± 0.27 |
| GCAGAGCAAUAUUACGGGAA | -2.68 ± 0.19 | -1.96 ± 0.18 |
| GCAGAGCAAUAUUACGGGCU | -1.78 ± 0.3 | -2.03 ± 0.39 |
| GCAGAGCAAUAUUACGGGGG | -3.1 ± 0.34 | -3.56 ± 0.39 |
| GCAGAGCAAUAUUACGGGUC | -3.78 ± 0.47 | -2.29 ± 0.24 |
| GCAGAGCAAUAUUACGGUAC | -2.65 ± 0.22 | -1.79 ± 0.45 |
| GCAGAGCAAUAUUACGGUCC | -2.22 ± 0.29 | -2.05 ± 0.4 |
| GCAGAGCAAUAUUACGUAAA | -2.76 ± 0.19 | -3.33 ± 0.42 |
| GCAGAGCAAUAUUACGUACC | -1.95 ± 0.17 | -0.941 ± 0.19 |
| GCAGAGCAAUAUUACGUAGU | -3.3 ± 0.28 | -3.09 ± 0.37 |
| GCAGAGCAAUAUUACGUCCC | – | -1.04 ± 0.34 |
| GCAGAGCAAUAUUACGUCGA | – | -1.58 ± 0.21 |
| GCAGAGCAAUAUUACGUGGC | – | -2.09 ± 0.32 |
| GCAGAGCAAUAUUACGUGGU | -3.94 ± 0.17 | -2.27 ± 0.18 |
| GCAGAGCAAUAUUACGUUAC | -2.97 ± 0.16 | -1.38 ± 0.17 |
| GCAUAGCAAUAUUACGAACA | -1.61 ± 0.13 | -1.34 ± 0.12 |
| GCAUAGCAAUAUUACGAGUG | -2.77 ± 0.14 | -1.76 ± 0.11 |

| Sequence | self-splicing fitness (ln) (30 °C) | self-splicing fitness (ln) (37 °C) |
| --- | --- | --- |
| GCAUAGCAAUAUUACGAUUU | -1.27 ± 0.092 | 0.225 ± 0.14 |
| GCAUAGCAAUAUUACGCACC | -1.28 ± 0.21 | – |
| GCAUAGCAAUAUUACGCCGG | -3 ± 0.28 | -1.01 ± 0.2 |
| GCAUAGCAAUAUUACGGAAC | -3.61 ± 0.29 | -3.46 ± 0.34 |
| GCAUAGCAAUAUUACGGAGC | -3.59 ± 0.25 | -2.73 ± 0.23 |
| GCAUAGCAAUAUUACGGCAU | -1.21 ± 0.096 | -1.19 ± 0.083 |
| GCAUAGCAAUAUUACGGCUU | -0.36 ± 0.11 | -0.322 ± 0.11 |
| GCAUAGCAAUAUUACGUACG | -1.42 ± 0.076 | -1.14 ± 0.09 |
| GCAUAGCAAUAUUACGUAGC | -4.39 ± 0.26 | -2.15 ± 0.16 |
| GCAUAGCAAUAUUACGUAGG | -2.32 ± 0.11 | -1.31 ± 0.13 |
| GCAUAGCAAUAUUACGUCCG | -1.44 ± 0.081 | -0.899 ± 0.13 |
| GCAUAGCAAUAUUACGUGUA | -2.43 ± 0.13 | -0.881 ± 0.084 |
| GCCAAGCAAUAUUACGAACG | -2.71 ± 0.11 | -1.46 ± 0.13 |
| GCCAAGCAAUAUUACGACAA | -3.73 ± 0.38 | -3.04 ± 0.26 |
| GCCAAGCAAUAUUACGACGA | -1.84 ± 0.15 | -1.02 ± 0.2 |
| GCCAAGCAAUAUUACGAUCC | -1.01 ± 0.14 | 0.392 ± 0.18 |
| GCCAAGCAAUAUUACGCAGC | -2.96 ± 0.2 | -2.53 ± 0.25 |
| GCCAAGCAAUAUUACGCUAG | -3.06 ± 0.15 | -2.25 ± 0.17 |
| GCCAAGCAAUAUUACGCUCA | -0.458 ± 0.093 | 0.0485 ± 0.12 |
| GCCAAGCAAUAUUACGCUGG | -4.4 ± 0.28 | -2.37 ± 0.18 |
| GCCAAGCAAUAUUACGGAUG | -1.24 ± 0.057 | -0.693 ± 0.07 |
| GCCAAGCAAUAUUACGGCCU | -3.86 ± 0.32 | -1.67 ± 0.19 |
| GCCAAGCAAUAUUACGGUCU | -2.26 ± 0.12 | -0.79 ± 0.12 |
| GCCAAGCAAUAUUACGUAGA | -1.98 ± 0.064 | -1.26 ± 0.077 |
| GCCAAGCAAUAUUACGUAGC | -2.49 ± 0.14 | -1.31 ± 0.13 |

| Sequence | self-splicing fitness (ln) (30 °C) | self-splicing fitness (ln) (37 °C) |
| --- | --- | --- |
| GCCAAGCAAUAUUACGUAUA | -2 ± 0.23 | -0.632 ± 0.15 |
| GCCAAGCAAUAUUACGUCAA | -2.75 ± 0.34 | -1.97 ± 0.22 |
| GCCAAGCAAUAUUACGUGGA | -0.758 ± 0.049 | -0.303 ± 0.052 |
| GCCAAGCAAUAUUACGUGGC | -3.84 ± 0.2 | -3.04 ± 0.28 |
| GCCAAGCAAUAUUACGUUAU | -2.76 ± 0.14 | -0.784 ± 0.1 |
| GCCAAGCAAUAUUACGUUGG | -3.36 ± 0.27 | -2.6 ± 0.19 |
| GCCCAGCAAUAUUACGAACC | -1.02 ± 0.15 | 0.156 ± 0.15 |
| GCCCAGCAAUAUUACGACAA | -2.72 ± 0.14 | -1.27 ± 0.11 |
| GCCCAGCAAUAUUACGACCG | -2.84 ± 0.18 | -1.55 ± 0.21 |
| GCCCAGCAAUAUUACGAGUA | -0.468 ± 0.14 | -0.671 ± 0.1 |
| GCCCAGCAAUAUUACGAGUG | -1.37 ± 0.076 | -0.365 ± 0.085 |
| GCCCAGCAAUAUUACGAUCG | -3.49 ± 0.12 | -1.44 ± 0.1 |
| GCCCAGCAAUAUUACGCACU | -0.532 ± 0.075 | 0.216 ± 0.12 |
| GCCCAGCAAUAUUACGCAGC | -1.83 ± 0.12 | -1.38 ± 0.13 |
| GCCCAGCAAUAUUACGCCGA | -1.86 ± 0.13 | -1.2 ± 0.12 |
| GCCCAGCAAUAUUACGCGCG | -2.16 ± 0.14 | -0.815 ± 0.13 |
| GCCCAGCAAUAUUACGCGCU | -3.29 ± 0.18 | -2.41 ± 0.2 |
| GCCCAGCAAUAUUACGCUAA | -0.87 ± 0.083 | -0.549 ± 0.09 |
| GCCCAGCAAUAUUACGGAAG | -2.76 ± 0.13 | -1.4 ± 0.11 |
| GCCCAGCAAUAUUACGGAGC | -4.06 ± 0.39 | -2.17 ± 0.34 |
| GCCCAGCAAUAUUACGGCCA | -2.6 ± 0.27 | -0.571 ± 0.18 |
| GCCCAGCAAUAUUACGGCGU | -1.12 ± 0.064 | -0.731 ± 0.089 |
| GCCCAGCAAUAUUACGGGAA | 0.0209 ± 0.051 | 0.313 ± 0.06 |
| GCCCAGCAAUAUUACGGUUU | 0.123 ± 0.05 | 0.185 ± 0.063 |
| GCCCAGCAAUAUUACGUAUC | -0.98 ± 0.08 | -1.18 ± 0.081 |

| Sequence | self-splicing fitness (ln) (30 °C) | self-splicing fitness (ln) (37 °C) |
| --- | --- | --- |
| GCCCAGCAAUAUUACGUUCU | -1.95 ± 0.079 | -1.18 ± 0.091 |
| GCCCAGCAAUAUUACGUUGA | -1.72 ± 0.11 | -1.25 ± 0.12 |
| GCCCAGCAAUAUUACGUUUU | -1.53 ± 0.064 | -0.591 ± 0.09 |
| GCCGAGCAAUAUUACGAAGA | -2.76 ± 0.16 | -2.03 ± 0.12 |
| GCCGAGCAAUAUUACGAGAA | -2.99 ± 0.19 | -0.755 ± 0.12 |
| GCCGAGCAAUAUUACGAGGU | -4 ± 0.3 | -2.23 ± 0.25 |
| GCCGAGCAAUAUUACGAUGU | -0.691 ± 0.057 | -0.267 ± 0.069 |
| GCCGAGCAAUAUUACGCAAC | -3.15 ± 0.29 | -2.07 ± 0.26 |
| GCCGAGCAAUAUUACGCAUG | -3.99 ± 0.3 | -2.4 ± 0.22 |
| GCCGAGCAAUAUUACGCCGC | -3.95 ± 0.43 | – |
| GCCGAGCAAUAUUACGCUUG | -3.71 ± 0.23 | -2.78 ± 0.24 |
| GCCGAGCAAUAUUACGGACU | -1.86 ± 0.2 | -0.863 ± 0.15 |
| GCCGAGCAAUAUUACGGCAG | -3.94 ± 0.29 | -2.61 ± 0.33 |
| GCCGAGCAAUAUUACGGGGG | -3.61 ± 0.19 | -3.02 ± 0.31 |
| GCCGAGCAAUAUUACGUAAU | -1.28 ± 0.092 | -0.203 ± 0.099 |
| GCCGAGCAAUAUUACGUAUA | -3.29 ± 0.15 | -1.87 ± 0.12 |
| GCCGAGCAAUAUUACGUCUC | -2.92 ± 0.22 | -1.44 ± 0.21 |
| GCCGAGCAAUAUUACGUGGC | -3.26 ± 0.14 | -2.25 ± 0.21 |
| GCCGAGCAAUAUUACGUGUA | -1.32 ± 0.071 | -0.983 ± 0.078 |
| GCCGAGCAAUAUUACGUUCG | -2.72 ± 0.26 | -2 ± 0.34 |
| GCCGAGCAAUAUUACGUUGG | -3.55 ± 0.24 | -2.18 ± 0.27 |
| GCCUAGCAAUAUUACGAAUA | -2.12 ± 0.43 | – |
